In US20230112035A1 (AstraZeneca / MedImmune, published 2023):
Where two headings read alike, the source gives them in different places. Values belong to the binder of their own block, whether it stands above or below them.

Tests used:
[1] = target: T1, recombinantly produced αvβ8 integrin protein (UniProt P06756 31-992; P26012 43-684); assay: Biacore
T1 chain 1: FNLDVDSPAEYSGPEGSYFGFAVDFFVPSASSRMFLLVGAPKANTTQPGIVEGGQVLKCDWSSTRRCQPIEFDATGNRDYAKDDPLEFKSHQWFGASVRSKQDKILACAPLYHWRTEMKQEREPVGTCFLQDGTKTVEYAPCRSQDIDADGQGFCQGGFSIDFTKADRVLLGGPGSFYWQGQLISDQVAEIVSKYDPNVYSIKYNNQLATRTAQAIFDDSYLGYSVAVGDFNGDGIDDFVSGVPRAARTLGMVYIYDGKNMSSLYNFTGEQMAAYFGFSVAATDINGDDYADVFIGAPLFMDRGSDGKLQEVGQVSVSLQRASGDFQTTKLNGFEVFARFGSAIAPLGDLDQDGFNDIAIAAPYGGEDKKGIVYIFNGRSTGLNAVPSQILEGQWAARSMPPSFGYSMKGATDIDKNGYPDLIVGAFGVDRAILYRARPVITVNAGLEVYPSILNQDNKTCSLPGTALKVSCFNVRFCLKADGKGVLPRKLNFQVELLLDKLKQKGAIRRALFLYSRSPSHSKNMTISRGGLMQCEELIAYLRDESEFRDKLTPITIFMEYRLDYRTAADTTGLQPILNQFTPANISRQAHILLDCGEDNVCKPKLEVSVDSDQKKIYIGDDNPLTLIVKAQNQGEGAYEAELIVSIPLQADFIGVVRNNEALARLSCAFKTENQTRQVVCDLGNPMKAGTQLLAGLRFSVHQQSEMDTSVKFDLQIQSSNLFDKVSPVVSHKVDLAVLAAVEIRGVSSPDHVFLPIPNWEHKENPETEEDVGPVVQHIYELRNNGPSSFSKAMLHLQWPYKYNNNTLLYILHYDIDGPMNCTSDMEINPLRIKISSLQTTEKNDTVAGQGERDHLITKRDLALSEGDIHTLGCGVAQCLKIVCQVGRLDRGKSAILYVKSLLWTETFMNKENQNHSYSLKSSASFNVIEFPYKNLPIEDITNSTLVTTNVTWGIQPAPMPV
T1 chain 2: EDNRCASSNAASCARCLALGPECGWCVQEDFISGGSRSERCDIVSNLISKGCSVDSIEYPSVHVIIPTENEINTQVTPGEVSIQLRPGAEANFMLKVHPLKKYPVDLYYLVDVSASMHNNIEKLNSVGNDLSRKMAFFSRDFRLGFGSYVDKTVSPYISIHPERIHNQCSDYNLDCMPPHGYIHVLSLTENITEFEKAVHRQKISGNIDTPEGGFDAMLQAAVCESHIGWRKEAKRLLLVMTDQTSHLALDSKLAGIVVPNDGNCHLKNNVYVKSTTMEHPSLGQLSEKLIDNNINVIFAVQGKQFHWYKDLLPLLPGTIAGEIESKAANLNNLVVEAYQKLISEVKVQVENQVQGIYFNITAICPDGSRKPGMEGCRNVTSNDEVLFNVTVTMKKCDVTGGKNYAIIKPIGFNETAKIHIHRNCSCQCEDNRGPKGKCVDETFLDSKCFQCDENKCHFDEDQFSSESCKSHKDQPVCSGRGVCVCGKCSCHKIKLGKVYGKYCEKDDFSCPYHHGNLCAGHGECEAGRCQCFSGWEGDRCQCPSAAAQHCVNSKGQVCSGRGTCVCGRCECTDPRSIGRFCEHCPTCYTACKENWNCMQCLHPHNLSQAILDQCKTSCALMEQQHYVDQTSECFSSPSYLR

[2] = target: T1, recombinantly produced αvβ8 integrin …
[3] = target: human αvβ8 integrin expressed on cells and in tissue (human, UniProt P06756 31-1048; P26012 43-769); assay: cell-based or functional assay
[4] = target: T2, recombinantly produced αvβ8 integrin protein (human, UniProt P06756 31-992; P26012 43-684); assay: ELISA screening of position 94 mutants
T2 construct: Protein coated on ELISA plates and used in Biacore; also called integrin αvβ8

[5] = target: T1, recombinantly produced αvβ8 integrin …; assay: Biacore; value is an estimate

B1: Chi-37E1B5 chimeric anti-αvβ8 integrin antibody (antibody, V domains shown)
VH: EVQLVESGGGLVQPGGSLNLSCAVSGFVFSRYWMSWVRQAPGKGLEWIGEINPDSSTINYTSSLKDKFIISRDNAKNTLYLQMNKVRSEDTALYYCACLITTEDYWGQGTSVTVSS
VL: EIVLTQSPSSMYASLGERVTIPCKASQDINSYLSWFQQKPGKSPKTLIYYANRLVDGVPSRFSGSGSGQDYSLTISSLEYEDMGIYYCLQYDEFPYTFGGGTKLEIK
Kd [1]: 0.5 nM | Kd [2]: 0.5 nM

B2: B5-15 humanized and affinity optimized anti-αvβ8 integrin antibody (antibody, V domains shown)
VH: EVQLVESGGGLVQPGGSLRLSCAVSGFVFSRSWISWVRQAPGKGLEWIGEINPDSSTINYTSSLKDRFTISRDNAKNSLYLQMNSLRAEDTAVYYCAILITTEDYWGQGTTVTVSS
VL: DIQLTQSPSSLSASVGDRVTITCKASQDINKYLSWFQQKPGKAPKSLIYYANRLVDGVPSRFSGSGSGTDFTLTISSLQPEDFATYYCLQYDVFPYTFGGGTKVEIK
SMAD2/3 phosphorylation in kidney lysates of humanized αvβ8 transgenic mice after UUO (ELISA) [3]: 1.6 fold | Kd [2]: 0.166 nM

The next lines start with the values.

fold reduction in αvβ8 binding affinity (against MEDI-hu37E1B5 with Cys 94) [4]: ~3 fold
B3: MEDI-hu37E1B5-C94I mutant antibody (antibody, V domains shown)
VH: EVQLVESGGGLVQPGGSLRLSCAVSGFVFSRYWMSWVRQAPGKGLEWIGEINPDSSTINYTSSLKDRFTISRDNAKNSLYLQMNSLRAEDTAVYYCAILITTEDYWGQGTTVTVSS
VL: DIQLTQSPSSLSASVGDRVTITCKASQDINSYLSWFQQKPGKAPKSLIYYANRLVDGVPSRFSGSGSGTDFTLTISSLQPEDFATYYCLQYDEFPYTFGGGTKVEIK
notes: IgG; also called humanized anti-αvβ8 integrin antibody C94I

Kd [5]: ~490 nM
B4: hu37E1B5 anti-αvβ8 integrin antibody (UCSF humanized sequence of WO 2013/026004) (antibody, V domains shown)
VH: EVQLVESGGGLVQPGGSLRLSCAVSGFVFSRYWMSWVRQAPGKGLEWIGEINPDSSTINYTSSLKDRFTISRDNAKNSLYLQMNSLRAEDTAVYYCASLITTEDYWGQGTTVTVSS
VL: EIVLTQSPSSLSLSPGERVTITCKASQDINSYLSWYQQKPGKAPKLLIYYANRLVDGVPARFSGSGSGQDYTLTISSLEPEDFAVYYCLQYDEFPYTFGGGTKLEIK
